Data taken from US20200239597A1, “AN ANTI-APOPTOTIC FUNCTION OF PKM2 AND INTRACELLULARLY EXPRESSED SCFV ANTIBODIES” (La Jolla Institute for Allergy and Immunology, priority 2017, published 2020).

Tests used:
MDA-MB231 = assay: Clonogenic rescue from BimS-induced death, MDA-MB231; type: cell-based; conditions: parental MDA-MB231
Experimental: Control or IB5-expressing cells were transfected with BimS cDNA. The plates were fixed and stained with crystal violet after 12 days and the total areas of colonies were measured. Mean, SD and P values were calculated from 3 individual plates.

U2OS cells = assay: Clonogenic rescue from BimS-induced death, U2OS; type: cell-based
293T cells [1] = assay: Rescue of 293T cells from BimS-induced apoptosis (cell viability); type: cell-based, human
Experimental: Human BimS cDNA was subcloned into a pShooter™ mammalian expression vector (pCMV/myc/cyto; Invitrogen), to allow the expression of BimS driven by a CMV promoter. […] 293T cells were then infected with the intrabody library and then transfected with 4 μg/ml BimS plasmid, using 10 l of Lipofectamine® 2000 transfection reagent (Thermo Fisher). After 24 h post-infection, the culture medium was replaced with fresh MEMc medium supplemented with 10% FBS and penicillin/streptomycin (Gibco-Invitrogen).
Cell viability was measured with a Countess™ Automated Cell Counter (Invitrogen) using trypan blue. For the clonogenic survival assay, 293T or MEFs cells were seeded in 6-well plates at 1×10^5 cells/well in a 2-ml volume, transfected with BimS cDNA and incubated for 24 h. Afterwards, the medium was replaced and the cells cultured for 3-4 days. Thereafter, the plates were rinsed with PBS and fixed and stained with a solution containing crystal violet (0.5% w/v) and glutaraldehyde (6% v/v) as described (Franken et al., 2006).

[2] = tested on: PKM2-deficient MEFs reconstituted with WT PKM2; assay: Mitochondrial length by fluorescence microscopy (Tom20 staining); type: cell-based, mouse; conditions: PKM2-null MEFs reconstituted with WT PKM2
Text: IB5 expression with WT PKM2 increased mitochondrial length, and PKM2 (K422R) expression increased mitochondrial length even in the absence of IB5. PKM2-deficient MEFs reconstituted with WT PKIM2 or PKM2(K422R) cDNA, were infected or not with IB5 lentivirus. […] Mitochondria were visualized by fluorescence microscopy after staining with Tom20 antibodies. Representative confocal images are shown.
Cells were analyzed 3 d after transfection with the indicated cDNA constructs (mean±s.e.m. of 3-5 experiments of 120-200 random selected cells.

[3] = tested on: mitochondria isolated from 293T cells; assay: Mitochondria isolation and cytochrome c release assay (MOMP induced by cleaved Bid); type: cell-based, human; conditions: mitochondria from IB5-expressing 293T cells, 30 min at 37° C.
Experimental: Control (top) or Intrabody-expressing (bottom) 293T cells were collected and the mitochondrial fraction was isolated by differential centrifugation. To induce MOMP, recombinant cBid protein was added at the indicated concentrations. After incubation for 30 min at 37° C., samples were centrifuged, and cytochrome c (cyt c) content in mitochondrial pellet fractions was analyzed by immunoblot. A representative of three independent experiments is shown. Right panel: densitometric quantification of average cytochrome c content ±SEM from three independent experiments.
Mitochondria were isolated from 5×10^8 cells as described (Waterhouse et al., 2001). The freshly isolated mitochondria ([…]) were then incubated with recombinant cleaved Bid protein (Kuwana et al., 2002) at the indicated concentrations in the presence or absence of purified scFv #5. After incubation for 30 min at 37° C., mitochondria were collected by centrifugation at 10 000×g and analyzed by immunoblotting as described (Waterhouse et al., 2001).

293T cells [4] = assay: siRNA silencing of PKM2, rescue from BimS killing; type: cell-based, human; conditions: 30 nM PKM2-specific siRNA
Experimental: 5×10^5 cells were incubated per well for 12 h, then cells were either mock-transfected, transfected with 30 nM PKM2-specific siRNA (si M2), or transfected with NF-kB p50-specific siRNA (si p50). After a further 36-h incubation, samples of the same siRNAs were added along with 4 μg of BimS cDNA in fresh medium. Viable cells were counted after another 48-h incubation.
Untreated or IB5-infected 293T cells (5×10^5 per well) were seeded into 6-well plates (Falcon) and transfected with 30 nM siRNA. Lipofectamine™ 2000 (Invitrogen, Carlsbad, Calif., USA) was used for transient transfection according to the manufacturer's protocol. After a 30-h incubation, fresh medium containing 30 nM siRNA and 4 μg/ml BimS expression plasmid was added. Cell viability assay was assayed after a further 36-h incubation. The PKM2-siRNA and control siRNA were purchased from Dharmacon (SiGENOME SMART™ pool hPKM2, Si156, and ONTARGETplus™ non-targeting siRNA #2) (Goldberg and Sharp, 2012).

293T cells [5] = assay: Protection from death induced by transient expression of tBid; type: cell-based, human; conditions: surviving cells counted after 72 h
Experimental: FIG. 2B is a non-limiting graph representation of a transfection assay to assess the effect of IB5 in cells transfected with pro-apoptotic proteins BimS and tBid encoding cDNA. […] 293T cells were transfected treated with […] tBid or BimS cDNA. Surviving cells were counted after 72 h.

WT PKM2 = target: T1, WT PKM2 (Homo sapiens, UniProt P14618); assay: Pyruvate kinase assay (Kinase-Glo Plus), WT PKM2; type: biochemical; conditions: PKM2 at 50 nM; ADP and PEP as substrates
T1 construct: His (N); made in house; host or cells: Escherichia coli BL21(DE3)
T1 sequence (P14618 whole entry): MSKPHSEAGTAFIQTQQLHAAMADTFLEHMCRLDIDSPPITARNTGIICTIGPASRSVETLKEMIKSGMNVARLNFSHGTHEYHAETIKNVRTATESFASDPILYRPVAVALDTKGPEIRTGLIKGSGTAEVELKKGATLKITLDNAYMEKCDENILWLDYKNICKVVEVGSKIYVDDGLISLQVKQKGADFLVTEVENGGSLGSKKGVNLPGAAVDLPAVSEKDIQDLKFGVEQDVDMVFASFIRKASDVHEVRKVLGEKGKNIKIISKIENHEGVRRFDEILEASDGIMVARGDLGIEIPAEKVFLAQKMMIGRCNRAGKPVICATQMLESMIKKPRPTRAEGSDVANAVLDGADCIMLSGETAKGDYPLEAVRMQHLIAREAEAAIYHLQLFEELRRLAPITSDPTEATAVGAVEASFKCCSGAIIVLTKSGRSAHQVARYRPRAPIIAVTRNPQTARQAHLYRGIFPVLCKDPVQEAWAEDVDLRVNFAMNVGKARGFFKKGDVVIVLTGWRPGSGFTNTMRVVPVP
Experimental: Activity was measured by Kinase-Glo® Plus Luminescent Kinase Assay kit (promega), using ADP and PEP as substrates), with PKM2 at 50 nM. Shown are values with the basal activity of PKM2 alone subtracted out.
Pyruvate kinase activity was measured by using Kinase-Glo® Plus Luminescent Kinase Assay kit (Promega). 50-100 nM of purified WT or mutant PKM2 was added in 100 μl assay buffer containing 50 mM Tris pH7.5, 100 mM KCl, 10 mM MgCl2, 200 μM PEP, 200 μM ADP, and 3% DMSO. After a 15-min incubation, Kinase-Glo Plus™ reagent (Promega Corporation, Madison, Wis., USA) was added, according to the manufacturer's instructions. In some cases, 0-40 μM fructose 1,6-bisphosphate (FBP) and 0-150 nM scFv 5 were added.

HCT116 and U2OS cells = assay: Clonogenic survival with etoposide or staurosporine; type: cell-based; conditions: 150 nM etoposide
Experimental: 5×10^5 HCT116 and U2OS cells were plated and transfected with BimS expression plasmid including 150 nM etoposide or 1 μM Staurosporine. The plates were fixed and stained with crystal violet after 5 days and the total areas of colonies were measured. Mean, SD and P values were calculated from 3 individual plates.

HCT116 cells = assay: Clonogenic rescue from BimS-induced death, HCT116; type: cell-based

B1: IB5: intracellularly expressed single-chain antibody (scFv) specific for PKM2, SEQ ID NO: 2; also made as monovalent recombinant scFv in E. coli (protein)
scFv: MAQVQLVETGPGLVKPSETLSLRCTVSGGSFDNYYWNWIRQPPGKGLEYIGYVFPSTGATNYNPSLGSRVTISLDTSKNQFSLTLTSVTTADTAIYYCVRSGHDLWTGSTWFDPWGQWTTVTVSSGGGGSGGGGSGGGGSEIVLTQSPGTLSLSPGERATLSCRASQSVSSSYLAWYQQKPGQAPRLLIYGASSRATGIPDRFSGSGSGTDFTLTISRLEPEDIAVYYCQQRSNWPRTFGQGTKVEIKRGLGGLASVDYKDDDDK
modifications: artificial intrabody clone 5
notes: also made as monovalent recombinant scFv in E. coli
MDA-MB231
  rescue from BimS-induced cell death: failed to rescue
U2OS cells
  protection from BimS-induced apoptosis (clonogenicity): substantially protected
293T cells [1]; single intrabody expressed from lentivirus, BimS cDNA transfection
  percentage of 293T cells rescued from BimS-induced death: 15-20%
293T cells [1]; weaker promoter, not shown
  survival effect when expressed with a weaker promoter: reduced
[2]
  average mitochondrial length: increased the average mitochondrial length
[3]
  resistance of mitochondria to MOMP induced by cleaved Bid protein: reproducibly more resistant than control mitochondria to MOMP
293T cells [4]
  ability to rescue cells from BimS killing after PKM2 silencing: substantial reduction
293T cells [5]
  protection from death induced by transient expression of tBid: protected from death
WT PKM2
  glycolytic (pyruvate kinase) activity of WT PKM2: stimulated PKM2's glycolytic activity in a concentration-dependent manner
HCT116 and U2OS cells
  clonogenic survival in cells treated with etoposide: promoted clonogenic survival
HCT116 cells
  protection from BimS-induced apoptosis (clonogenicity): substantially protected
